Measurements as given in US20260193293A1, “PEPTIDES CAPABLE OF INHIBITING PROTEIN-PROTEIN INTERACTIONS AT GABAB1A SUBUNIT AND USES THEREOF” (UNIVERSITY OF COPENHAGEN, priority 2022, published 2026).
Non-standard residues stand in square brackets, D forms with d. NMeW = CN[C@@H](Cc1c[nH]c2ccccc12)C(=O)O; NMeT = CN[C@H](C(=O)O)[C@@H](C)O; NMeD = CN[C@@H](CC(=O)O)C(=O)O; NMeV = CN[C@H](C(=O)O)C(C)C; NMeS = CN[C@@H](CO)C(=O)O; NMeA = CN[C@@H](C)C(=O)O; Sar = CNCC(=O)O

B1: EDDSD(N-Me-V)WWGGADTD (peptide)
peptide: Ac-EDDSD[NMeV]WWGGADTD-NH2
SMILES: CC(=O)N[C@@H](CCC(=O)O)C(=O)N[C@@H](CC(=O)O)C(=O)N[C@@H](CC(=O)O)C(=O)N[C@@H](CO)C(=O)N[C@@H](CC(=O)O)C(=O)N(C)[C@H](C(=O)N[C@@H](Cc1c[nH]c2ccccc12)C(=O)N[C@@H](Cc1c[nH]c2ccccc12)C(=O)NCC(=O)NCC(=O)N[C@@H](C)C(=O)N[C@@H](CC(=O)O)C(=O)N[C@H](C(=O)N[C@@H](CC(=O)O)C(N)=O)[C@@H](C)O)C(C)C
B2: EDDSDVWW(N-Me-G)GADTD (peptide)
peptide: Ac-EDDSDVWW[Sar]GADTD-NH2
SMILES: CC(=O)N[C@@H](CCC(=O)O)C(=O)N[C@@H](CC(=O)O)C(=O)N[C@@H](CC(=O)O)C(=O)N[C@@H](CO)C(=O)N[C@@H](CC(=O)O)C(=O)N[C@H](C(=O)N[C@@H](Cc1c[nH]c2ccccc12)C(=O)N[C@@H](Cc1c[nH]c2ccccc12)C(=O)N(C)CC(=O)NCC(=O)N[C@@H](C)C(=O)N[C@@H](CC(=O)O)C(=O)N[C@H](C(=O)N[C@@H](CC(=O)O)C(N)=O)[C@@H](C)O)C(C)C
B3: …aDED (peptide)
peptide: Ac-ETEFIAWGPT[dA]DED-NH2
SMILES: CC[C@H](C)[C@H](NC(=O)[C@H](Cc1ccccc1)NC(=O)[C@H](CCC(=O)O)NC(=O)[C@@H](NC(=O)[C@H](CCC(=O)O)NC(C)=O)[C@@H](C)O)C(=O)N[C@@H](C)C(=O)N[C@@H](Cc1c[nH]c2ccccc12)C(=O)NCC(=O)N1CCC[C@H]1C(=O)N[C@H](C(=O)N[C@H](C)C(=O)N[C@@H](CC(=O)O)C(=O)N[C@@H](CCC(=O)O)C(=O)N[C@@H](CC(=O)O)C(N)=O)[C@@H](C)O
B4: …(N-Me-D) (peptide)
peptide: Ac-EDDSDVWWGGADT[NMeD]-NH2
SMILES: CC(=O)N[C@@H](CCC(=O)O)C(=O)N[C@@H](CC(=O)O)C(=O)N[C@@H](CC(=O)O)C(=O)N[C@@H](CO)C(=O)N[C@@H](CC(=O)O)C(=O)N[C@H](C(=O)N[C@@H](Cc1c[nH]c2ccccc12)C(=O)N[C@@H](Cc1c[nH]c2ccccc12)C(=O)NCC(=O)NCC(=O)N[C@@H](C)C(=O)N[C@@H](CC(=O)O)C(=O)N[C@H](C(=O)N(C)[C@@H](CC(=O)O)C(N)=O)[C@@H](C)O)C(C)C
B5: …(N-Me-A)DTD (peptide)
peptide: Ac-EDDSDVWWGG[NMeA]DTD-NH2
SMILES: CC(=O)N[C@@H](CCC(=O)O)C(=O)N[C@@H](CC(=O)O)C(=O)N[C@@H](CC(=O)O)C(=O)N[C@@H](CO)C(=O)N[C@@H](CC(=O)O)C(=O)N[C@H](C(=O)N[C@@H](Cc1c[nH]c2ccccc12)C(=O)N[C@@H](Cc1c[nH]c2ccccc12)C(=O)NCC(=O)NCC(=O)N(C)[C@@H](C)C(=O)N[C@@H](CC(=O)O)C(=O)N[C@H](C(=O)N[C@@H](CC(=O)O)C(N)=O)[C@@H](C)O)C(C)C
B6: …(N-Me-T)D (peptide)
peptide: Ac-EDDSDVWWGGAD[NMeT]D-NH2
SMILES: CC(=O)N[C@@H](CCC(=O)O)C(=O)N[C@@H](CC(=O)O)C(=O)N[C@@H](CC(=O)O)C(=O)N[C@@H](CO)C(=O)N[C@@H](CC(=O)O)C(=O)N[C@H](C(=O)N[C@@H](Cc1c[nH]c2ccccc12)C(=O)N[C@@H](Cc1c[nH]c2ccccc12)C(=O)NCC(=O)NCC(=O)N[C@@H](C)C(=O)N[C@@H](CC(=O)O)C(=O)N(C)[C@H](C(=O)N[C@@H](CC(=O)O)C(N)=O)[C@@H](C)O)C(C)C
B7: EDDSDV(N-Me-W)WGGADTD (peptide)
peptide: Ac-EDDSDV[NMeW]WGGADTD-NH2
SMILES: CC(=O)N[C@@H](CCC(=O)O)C(=O)N[C@@H](CC(=O)O)C(=O)N[C@@H](CC(=O)O)C(=O)N[C@@H](CO)C(=O)N[C@@H](CC(=O)O)C(=O)N[C@H](C(=O)N(C)[C@@H](Cc1c[nH]c2ccccc12)C(=O)N[C@@H](Cc1c[nH]c2ccccc12)C(=O)NCC(=O)NCC(=O)N[C@@H](C)C(=O)N[C@@H](CC(=O)O)C(=O)N[C@H](C(=O)N[C@@H](CC(=O)O)C(N)=O)[C@@H](C)O)C(C)C
B8: EDDSDVW(N-Me-W)GGADTD (peptide)
peptide: Ac-EDDSDVW[NMeW]GGADTD-NH2
SMILES: CC(=O)N[C@@H](CCC(=O)O)C(=O)N[C@@H](CC(=O)O)C(=O)N[C@@H](CC(=O)O)C(=O)N[C@@H](CO)C(=O)N[C@@H](CC(=O)O)C(=O)N[C@H](C(=O)N[C@@H](Cc1c[nH]c2ccccc12)C(=O)N(C)[C@@H](Cc1c[nH]c2ccccc12)C(=O)NCC(=O)NCC(=O)N[C@@H](C)C(=O)N[C@@H](CC(=O)O)C(=O)N[C@H](C(=O)N[C@@H](CC(=O)O)C(N)=O)[C@@H](C)O)C(C)C
B9: EDDS(N-Me-D)… (peptide)
peptide: Ac-EDDS[NMeD]VWWGGADTD-NH2
SMILES: CC(=O)N[C@@H](CCC(=O)O)C(=O)N[C@@H](CC(=O)O)C(=O)N[C@@H](CC(=O)O)C(=O)N[C@@H](CO)C(=O)N(C)[C@@H](CC(=O)O)C(=O)N[C@H](C(=O)N[C@@H](Cc1c[nH]c2ccccc12)C(=O)N[C@@H](Cc1c[nH]c2ccccc12)C(=O)NCC(=O)NCC(=O)N[C@@H](C)C(=O)N[C@@H](CC(=O)O)C(=O)N[C@H](C(=O)N[C@@H](CC(=O)O)C(N)=O)[C@@H](C)O)C(C)C
B10: EDD(N-Me-S)… (peptide)
peptide: Ac-EDD[NMeS]DVWWGGADTD-NH2
SMILES: CC(=O)N[C@@H](CCC(=O)O)C(=O)N[C@@H](CC(=O)O)C(=O)N[C@@H](CC(=O)O)C(=O)N(C)[C@@H](CO)C(=O)N[C@@H](CC(=O)O)C(=O)N[C@H](C(=O)N[C@@H](Cc1c[nH]c2ccccc12)C(=O)N[C@@H](Cc1c[nH]c2ccccc12)C(=O)NCC(=O)NCC(=O)N[C@@H](C)C(=O)N[C@@H](CC(=O)O)C(=O)N[C@H](C(=O)N[C@@H](CC(=O)O)C(N)=O)[C@@H](C)O)C(C)C
B11: …(N-Me-D)TD (peptide)
peptide: Ac-EDDSDVWWGGA[NMeD]TD-NH2
SMILES: CC(=O)N[C@@H](CCC(=O)O)C(=O)N[C@@H](CC(=O)O)C(=O)N[C@@H](CC(=O)O)C(=O)N[C@@H](CO)C(=O)N[C@@H](CC(=O)O)C(=O)N[C@H](C(=O)N[C@@H](Cc1c[nH]c2ccccc12)C(=O)N[C@@H](Cc1c[nH]c2ccccc12)C(=O)NCC(=O)NCC(=O)N[C@@H](C)C(=O)N(C)[C@@H](CC(=O)O)C(=O)N[C@H](C(=O)N[C@@H](CC(=O)O)C(N)=O)[C@@H](C)O)C(C)C
B12: ED(N-Me-D)… (peptide)
peptide: Ac-ED[NMeD]SDVWWGGADTD-NH2
SMILES: CC(=O)N[C@@H](CCC(=O)O)C(=O)N[C@@H](CC(=O)O)C(=O)N(C)[C@@H](CC(=O)O)C(=O)N[C@@H](CO)C(=O)N[C@@H](CC(=O)O)C(=O)N[C@H](C(=O)N[C@@H](Cc1c[nH]c2ccccc12)C(=O)N[C@@H](Cc1c[nH]c2ccccc12)C(=O)NCC(=O)NCC(=O)N[C@@H](C)C(=O)N[C@@H](CC(=O)O)C(=O)N[C@H](C(=O)N[C@@H](CC(=O)O)C(N)=O)[C@@H](C)O)C(C)C
B13: e… (peptide)
peptide: Ac-[dE]TEFIAWGPTGDED-NH2
SMILES: CC[C@H](C)[C@H](NC(=O)[C@H](Cc1ccccc1)NC(=O)[C@H](CCC(=O)O)NC(=O)[C@@H](NC(=O)[C@@H](CCC(=O)O)NC(C)=O)[C@@H](C)O)C(=O)N[C@@H](C)C(=O)N[C@@H](Cc1c[nH]c2ccccc12)C(=O)NCC(=O)N1CCC[C@H]1C(=O)N[C@H](C(=O)NCC(=O)N[C@@H](CC(=O)O)C(=O)N[C@@H](CCC(=O)O)C(=O)N[C@@H](CC(=O)O)C(N)=O)[C@@H](C)O

These binders were tested against Sushi domains (SD1/2) protein of the GABAB1a (GB1a) subunit, recombinant (assay: FP competition).
Chain of Sushi domains (SD1/2) protein of the GABAB1a (GB1a) subunit, recombinant (Q9Z0U4 29-158): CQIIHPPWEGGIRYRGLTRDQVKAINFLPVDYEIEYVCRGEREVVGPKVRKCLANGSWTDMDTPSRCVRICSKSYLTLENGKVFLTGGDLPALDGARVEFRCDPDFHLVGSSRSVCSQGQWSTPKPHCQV

Going from B1 to Ac-ET[dE]FIAWGPTGDED-NH2 [ETe…], the Ki falls from 12300 nM to 178 nM (69-fold).

Going from B2 to Ac-ATEFIAWGPTGDED-NH2, the Ki falls from 18900 nM to 53 nM (360-fold).

Going from Ac-ETEFIAWAPTGDED-NH2 to Ac-EAEFIAWGPTGDED-NH2, the Ki falls from 196 nM to 34 nM (5.8-fold).

Compared with B3, B4 is 10-fold higher in Ki: 54 nM for the first, 565 nM for the second.

B5 and Ac-ETE[dF]IAWGPTGDED-NH2 [ETEf…] are within 1.5-fold of each other in Ki: 704 nM for the first, 930 nM for the second.

Going from Ac-ETEFIAWGPTG[dD]ED-NH2 […dED] to Ac-ETEFIAWGPTGDEA-NH2, the Ki rises from 29 nM to 44 nM (1.5-fold).

Going from Ac-ETEFIAWG[dP]TGDED-NH2 [ETEFIAWGpTGDED] to Ac-ETEFIAWGPTADED-NH2, the Ki falls from 352 nM to 20 nM (18-fold).

Compared with Ac-ETEFIAWGPTGDAD-NH2, Ac-ETEFIAWGPAGDED-NH2 is 2.3-fold higher in Ki: 38 nM for the first, 89 nM for the second.

First: B6
Second: Ac-ETAFIAWGPTGDED-NH2
The Ki of the first is 10-fold higher: 503 nM for the first, 49 nM for the second.

First: B7
Second: Ac-ETEFIAWGPTGAED-NH2
The Ki of the first is 1700-fold higher: 85600 nM for the first, 50 nM for the second. The second binds more tightly here.

Compared with B8, B9 is 2.7-fold higher in Ki: 1380 nM for the first, 3760 nM for the second.

First: Ac-ETEFIAW[dA]PTGDED-NH2 [ETEFIAWaPTGDED]
Second: B10
The Ki of the first is 3.2-fold higher: 5400 nM for the first, 1670 nM for the second. The second binds more tightly here.

First: Ac-E[dT]EFIAWGPTGDED-NH2 [Et…]
Second: B11
The Ki of the first is 7.2-fold lower: 56 nM for the first, 403 nM for the second.

Going from Ac-ETEFIAWGATGDED-NH2 to B12, the Ki rises from 291 nM to 671 nM (2.3-fold).

Compared with Ac-ETEAIAWGPTGDED-NH2, B13 is 15-fold lower in Ki: 688 nM for the first, 46 nM for the second.
